Assay [1] deals with T1, misdisordered truncated tau 151-391/4R (UniProt P10636 468-708). Kind of assay: SPR.
Assay [2] has as its target T1, misdisordered truncated tau 151-391/4R. Kind of assay: SPR. This is another data set of the same source. On the technique in general: Surface plasmon resonance follows binding to a sensor surface in real time, without labels.

Where two headings read alike, the source gives them in different places.

T1 sequence (P10636 468-708): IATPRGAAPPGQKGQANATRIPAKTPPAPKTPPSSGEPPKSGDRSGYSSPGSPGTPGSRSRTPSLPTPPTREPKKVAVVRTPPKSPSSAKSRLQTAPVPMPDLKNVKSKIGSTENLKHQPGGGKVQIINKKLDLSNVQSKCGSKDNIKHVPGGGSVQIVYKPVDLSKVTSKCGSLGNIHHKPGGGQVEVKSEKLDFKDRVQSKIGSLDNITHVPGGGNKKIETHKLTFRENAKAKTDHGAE

B1: AX016, humanized DC8E8 RHD/RKB (isotype not stated where tested) (antibody)
VH: QVQLVQSGAEVKKPGSSVKVSCKASGYTFSDYVISWVRQAPGQGLEWMGEIFPRSGSTYYNEKFKGRVTITADKSTSTAYMELSSLRSEDTAVYYCARDYYGTSFAMDYWGQGTLVTVSS
light: DIVMSQSPLSLPVTPGEPASISCKSSQSLLNSRTRKNYLAWYLQKPGQSPQLLIYWASTRESGVPDRFTGSGSGTDFTLKISRVEAEDVGVYYCKQSFYLRTFGQGTKVEIKRTVAAPSVFIFPPSDEQLKSGTASVVCLLNNFYPREAKVQWKVDNALQSGNSQESVTEQDSKDSTYSLSSTLTLSKADYEKHKVYACEVTHQGLSSPVTKSFNRGEC
In the case of B1, the Kd in assay [1] and in assay [2] was 9.39 nM throughout.

The record behind these values is patent US20180142007A1 (published 2018).
